Measurements from paper PMC314469, “Protein Interaction Networks by Proteome Peptide Scanning” (PLoS Biology, 2004).

T1: amphyphisin SH3 (AMPH_HUMAN), P49418
T1 chain: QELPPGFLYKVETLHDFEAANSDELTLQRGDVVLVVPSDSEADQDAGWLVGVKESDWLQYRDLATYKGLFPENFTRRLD


Assays:
[1] = target: T1, amphyphisin SH3 (AMPH_HUMAN), P49418; assay: SPOT array
[2] = target: endophilin SH3 (SH3G2_HUMAN), Q99962; assay: SPOT array

Binder | normalised SPOT signal, Boehringer light units (BLU); mean over the file's lines of this peptide [1] | normalised SPOT signal, Boehringer light units (BLU); mean over the file's lines of this peptide [2]
EGHALRRPPPRWLL [Q8WUK7 5-18] | 66.6 | 0
EGPSPARPPRRRTS [Q9Y5L9 2452-2466] | 16700 | 5340
EKPILDRPTRISQP [Q9Y403 100-113] | 57.1 | 0.6
EKGQPSRPTKSKDA [Q9NSC3 29-42] | 82.2 | 143
AFVNFRRPEDARAA [Q96T37 218-231] | 17.2 | 51.2
EGQQLVRPKKLPLI [Q9H2U9 25-38] | 87.3 | 70
EHRPLKRPRPRLGP [Q9UHV6 43-56] | 22 | 82
AGNLPSRPPPLSSP [Q96LQ5 87-101] | 59.7 | 1080
ELHVPIRPPRPSSP [O00485 108-122] | 12300 | 3980
EGAVPRRPEDALLL [Q96ML3 90-103] | 72.5 | -0
EKDHIRRPMNAFMI [Q9UEG5 39-52] | 30.2 | 67
EHPEPKRPSVDSLV [Q9C0I2 974-987] | 50.2 | 0
EGTEPRRPRAGPEE [P18887 302-315] | 36.7 | 4.9
ELPRPRRPPLQWRY [Q9NSY0 103-117] | 1080 | 5930
EKIPFERPFRRPNA [Q9NVW8 327-340] | 948 | 123
EGHRPRRPRGALPP [Q9UGQ7 111-124] | 27.1 | 2060
AALLFLRPPRVRGH [Q9NPN2 39-52] | 8020 | 82.4
ELEQLRRPPGTAER [Q9NZQ6 1526-1539] | 15.8 | 126
EGEEPKRPPGISER [Q9NS96 504-517] | 23.2 | 21.4
EGTYPRRPGSSPKV [Q9UJX9 322-335] | 54.8 | 73.1
EHRPPEKPPRPPRP [Q8TEL4 107-121] | 9830 | 9880
ELPRPRRPPPEDEE [P22460 83-97] | 40 | 36.9
EGNKPQRPPPPRRP [Q04118 252-266] | 5630 | 18200
EHPRLRRPMPWLLL [Q9Y5I4 12-25] | 85.8 | 783
ELTIIERPVRRSLK [Q9HCF0 45-58] | 700 | 61.6
EGNRPKKPPPPSAP [Q9NYR0 332-346] | 53.4 | 2130
EKPKLRRPSDRSNG [Q9H9V7 590-603] | 10.1 | 80.5
EKGELGRPGRKGRP [Q9Y215 121-134] | 103 | 164

Second part, the binder after the results:

normalised SPOT signal, Boehringer light units (BLU); mean over the file's lines of this peptide [1] | normalised SPOT signal, Boehringer light units (BLU); mean over the file's lines of this peptide [2] | Binder
2380 | 12300 | AGLRPPKPPRPASL [O75190 254-268]
136 | 1680 | EIMSPRKPPLFLTK [BAC04837 210-224]
115 | 443 | EGSMLRRPRTSSQH [Q92538 1455-1468]
5580 | 3370 | AGPGPARPPVPPRP [P52849 60-74]
27.1 | 51.5 | EGISLRRPNSFGIA [O95444 608-621]
42.6 | 40.3 | EGIPFRRPSTYGIP [P78347 404-417]
31.2 | 112 | EGVPFRRPSTFGIP [P78347 776-789]
29.7 | 1570 | EGAAPRRPGFWGSL [Q92988 19-32]
16.3 | 85.5 | EIAKLKRPTALKKV [Q93073 574-587]
52.6 | 62.9 | EIPKPIKPPTYQVL [O60504 440-454]
29.1 | 39.5 | EGLAFRRPAEYDPK [O95444 171-184]
139 | 108 | EIGFPGRPGRPGMN [P39060 984-997]
166 | 86.2 | ELAHLVRPQKSRPY [P42858 194-207]
31.2 | 43.4 | EHREPKRPEIIFLP [O43196 121-134]
